± gives the standard deviation of the averaged measurements.
B1: library; a variant is named by its letters at N, in order (parent)
chain: AATGTTGTTGATGCAACCATAAAGTGATATTTAATAATTATTTATAATCAGCAACTTAACCACAAAACAACCATATATTGATATNTCACAAAACAACCATAANTTGATATTTTTGTGAATCGAGTATTTCAGCAAAACTACTGCAGTAAGAA

Tests used:
[1] = variants of: B1; assay: relative integration efficiency (T-LR orientation) vs wild-type transposon end (log2 (normalized fold change)); transposon end mutated: left end; higher = more efficient transposition; details: with VchCAST RNA-guided transposition machinery (E. coli BL21(DE3) host, lacZ target)
Procedure: (§1)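 Pooled, barcoded VchCAST (Tn6677) mini-transposon donor libraries; each variable transposon-end sequence sits in a fixed pDonor mini-transposon context (10-bp barcode and cargo not included). Left- or right-end libraries were co-transformed with pEffector (TniQ-Cascade, TnsABC, lacZ crRNA, T7, 0.1 mM IPTG) into E. coli BL21(DE3) and grown 18 h at 37 C. T-LR and T-RL junction amplicons were sequenced; output/input barcode fold change was normalised to the mean of four wild-type barcodes and log2-transformed. Two biological replicates; zero-count/undetected variants carry floor values (-10 / -15), censored here. Barcode uncoupling by PCR recombination adds noise.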

[2] = variants of: B1; assay: relative integration efficiency (T-RL orientation) vs wild-type transposon end (log2 (normalized fold change)); transposon end mutated: left end; higher = more efficient transposition; details: with VchCAST RNA-guided transposition machinery (E. coli BL21(DE3) host, lacZ target)
Procedure: as §1

Row | Variant | relative integration efficiency (log2) [1] | relative integration efficiency (log2) [2]
1 | TA A22T G24T T31C A33C A70C T76A T86G T104G T113A | -0.49 ± 0.73 | -0.861 ± 0.53
2 | TA A16C G24T T30A A70C T76A T86G A96C T110A T113A | -0.0192 ± 0.24 | -0.213 ± 0.29
3 | TA A22T G24T T31C A33C T76A A77G C87T A102T T111C T113C | -0.361 ± 0.78 | -0.688 ± 0.55
4 | CA A16C G24T T30A T104G T113A | -0.245 ± 0.15 | -0.185 ± 0.23
5 | TA A16C G24T T32G A33C T76A T78A T84A C87A T104A T110A T113A | -0.781 ± 0.91 | -0.706 ± 0.26
6 | TA A23G G24T A33T A70C T76A T86G A96C T110A T113A | 0.0515 ± 0.56 | 0.0613 ± 0.44
7 | TA A23G G24T A33T A70C T76A T84A C87A A96C T110A T113A | 0.218 ± 0.46 | 0.00966 ± 0.38
8 | TA A23G G24T A33T T76A A77G C87T T104G T113A | 0.309 ± 0.37 | -0.339 ± 0.36
9 | TA A23G G24T A33T A70C T76A T84A C87A T104G T113A | -0.16 ± 0.29 | -0.158 ± 0.26
10 | TA A16C G24T T30A T76A T78G C87A A102T T111C T113C | -0.495 ± 0.48 | -0.243 ± 0.23
11 | TA A16C G24T T30A T76A T78G C87A A96C T110A T113A | 0.235 ± 1.1 | 0.17 ± 0.13
12 | CA A22T G24T T31C A33C A102T T111C T113C | -0.528 ± 0.39 | -0.843 ± 0.57
13 | TA A23G G24T A33T A70C T76A T84A C87A T104A T110A T113A | -0.119 ± 0.32 | -0.0493 ± 0.28
14 | TA A23G G24T A33T A70C T76A T86G A102T T111C T113C | -0.846 ± 0.11 | -0.375 ± 0.19
15 | TA A22T G24T T31C A33C T76A T78G C87A A102T T111C T113C | -0.662 ± 0.16 | -0.645 ± 0.14
16 | TA A22T G24T T31C A33C A70C T76A T86G A96C T112G T113C | -0.771 ± 0.36 | -0.328 ± 0.2
17 | TA A16C G24T T30A T76A A77G C87T T104A T110A T113A | -0.222 ± 0.22 | -0.901 ± 0.53
18 | TA A16C G24T T32G A33C T76A A77G C87T A96C T112G T113C | -0.88 ± 1.2 | -0.489 ± 0.45
19 | TA A22T G24T T31C A33C A70C T76A T86G T104A T110A T113A | -0.292 ± 0.24 | -0.768 ± 0.47
20 | TA A16C G24T T30A A70C T76A T84A C87A T104G T113A | 0.223 ± 0.78 | -0.109 ± 0.46
21 | TA A16C G24T T32G A33C T76A A77G C87T T104G T113A | -0.746 ± 0.94 | -1.52 ± 0.61
22 | TA A16C G24T T32G A33C A70C T76A T86G A102T T111C T113C | -1.2 ± 0.65 | -0.838 ± 0.29
23 | TA A23G G24T A33T A70C T76A T86G A96C T112G T113C | -0.361 ± 0.74 | -0.338 ± 0.051
24 | TA A22T G24T T31C A33C T76A T78A T84A C87A A96C T112G T113C | -0.159 ± 0.75 | -0.261 ± 0.33
25 | TA A16C G24T T32G A33C A70C T76A T86G T104G T113A | -0.573 ± 0.99 | -0.869 ± 0.48
26 | CA A22T G24T T31C A33C T104G T113A | -0.697 ± 0.046 | -0.629 ± 0.23
27 | TA A16C G24T T32G A33C T76A T78A T84A C87A A96C T112G T113C | -0.572 ± 0.31 | -0.447 ± 0.34
28 | TA A23G G24T A33T A70C T76A T84A C87A A102T T111C T113C | -0.166 ± 0.29 | 0.133 ± 0.28
29 | TA A16C G24T T30A T76A T78A T84A C87A A96C T110A T113A | -0.28 ± 0.67 | -0.316 ± 0.43

— the supplement of paper PMC10201428
